Reference: US20060257938A1, “Method of screening for drugs that block ligand binding to a lipid binding protein” (priority 2005, published 2006)
Substitutions are numbered along the chain they refer to. Names may count otherwise.

B1: L2P1E6: FABP probe, substitutions M18L A73L vs SEQ ID NO: 2 (protein, listed as Rattus norvegicus)
chain: AFDGTWKVDRNENYEKFLEKMGINVVKRKLGAHDNLKLTITQEGNKFTVKESSNFRNIDVVFELGVDFAYSLLDGTELTGTWTMEGNKLVGKFKRVDNGKELIAVREISGNELIQTYTYEGVEAKRIFKKE
modifications: PEPTIDE (1)...(131) wild-type rat intestinal fatty acid binding protein
B2: L2P4C5: FABP probe, substitutions M18I G31Y vs SEQ ID NO: 2 (protein, listed as Rattus norvegicus)
chain: B1 chain with L18I, G31Y, L73A
modifications: PEPTIDE (1)...(131) wild-type rat intestinal fatty acid binding protein
B3: 21W 78F 72A (protein, listed as Rattus norvegicus)
chain: B1 chain with L18M, M21W, L72A, L73A, L78F
modifications: PEPTIDE (1)...(131) wild-type rat intestinal fatty acid binding protein
B4: 18L 55L 73I 72A (protein, listed as Rattus norvegicus)
chain: B1 chain with F55L, L72A, L73I
modifications: PEPTIDE (1)...(131) wild-type rat intestinal fatty acid binding protein
B5: 21W 78A 102V 72A (protein, listed as Rattus norvegicus)
chain: B1 chain with L18M, M21W, L72A, L73A, L78A, L102V
modifications: PEPTIDE (1)...(131) wild-type rat intestinal fatty acid binding protein
B6: 73I 72A (protein, listed as Rattus norvegicus)
chain: B1 chain with L18M, L72A, L73I
modifications: PEPTIDE (1)...(131) wild-type rat intestinal fatty acid binding protein
B7: 18L 73L 72A (protein, listed as Rattus norvegicus)
chain: B1 chain with L72A
modifications: PEPTIDE (1)...(131) wild-type rat intestinal fatty acid binding protein

test: Probe fluorescence ratio response to arachidonic acid relative to ADIFAB2; format: binding; settings: Table 5; Arachidonic acid
Summary of the method: (§1)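 Fluorescently labeled rat intestinal FABP variants were read at two emission wavelengths, near the unbound maximum (about 420 to 480 nm) and the FFA-bound maximum (about 495 to 580 nm). R = Fλ1/Fλ2 after subtracting probe-free intensity; ΔR = R+agent − R0, normalized to ADIFAB2 (rI-FABP-L72A).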

In order of rising “ΔR/DRAΔ2 AA” value:
1. B1  0.4
2. B2  2.2

same assay, conditions: arachidonic acid; response relative to ADIFAB2

In order of rising “DR/DR AA” value:
1. B6  0.408
2. B7  0.441
3. B4  0.443
4. B3  4.264
5. B5  4.923

test: Probe fluorescence ratio response to stearic acid relative to ADIFAB2; format: binding; settings: Table 5
Summary of the method: as §1

In order of rising “ΔR/DRAΔ2 SA” value:
1. B1  0.2
2. B2  1.0

same assay, conditions: response relative to ADIFAB2

In order of falling “DR/DR SA” value:
1. B5  3.092
2. B3  1.161
3. B4  0.423
4. B7  0.254
5. B6  0.242

test: Probe fluorescence ratio response to palmitoleic acid relative to ADIFAB2; format: binding; settings: Table 5
Summary of the method: as §1

In order of falling “ΔR/DRAΔ2 POA” value:
1. B2  2.6
2. B1  0.1

same assay, conditions: response relative to ADIFAB2

In order of rising “DR/DR POA” value:
1. B4  −0.030
2. B7  0.092
3. B6  0.117
4. B3  1.217
5. B5  1.585

test: Probe fluorescence ratio response to linoleic acid relative to ADIFAB2; format: binding; settings: Table 5
Summary of the method: as §1

In order of rising “ΔR/DRAΔ2 LA” value:
1. B1  0.1
2. B2  2.8

same assay, conditions: response relative to ADIFAB2

In order of falling “DR/DR LA” value:
1. B5  2.749
2. B3  1.597
3. B6  0.039
4. B7  0.019
5. B4  −0.129

test: Probe fluorescence ratio response to palmitic acid relative to ADIFAB2; format: binding; settings: Table 5
Summary of the method: as §1

In order of falling “ΔR/DRAΔ2 PA” value:
1. B2  1.8
2. B1  0.0

same assay, conditions: response relative to ADIFAB2

In order of falling “DR/DR PA” value:
1. B5  1.721
2. B3  0.851
3. B6  0.015
4. B4  0.007
5. B7  −0.004

test: Probe fluorescence ratio response to oleic acid relative to ADIFAB2; format: binding; settings: Table 5
Summary of the method: as §1

In order of falling “ΔR/DRAΔ2 OA” value:
1. B2  2.1
2. B1  0.1

same assay, conditions: response relative to ADIFAB2

In order of rising “DR/DR OA” value:
1. B4  0.021
2. B7  0.021
3. B6  0.045
4. B3  1.843
5. B5  3.261

test: Probe fluorescence ratio response to linolenic acid relative to ADIFAB2; format: binding; settings: Table 5
Summary of the method: as §1

In order of falling “ΔR/DRAΔ2 LNA” value:
1. B2  2.8
2. B1  0.1

same assay, conditions: response relative to ADIFAB2

In order of falling “DR/DR LNA” value:
1. B3  1.694
2. B5  1.628
3. B6  0.099
4. B7  0.090
5. B4  −0.044
